For series [1], the target named is CfAA10, LPMO from Cellulomonas fimi (Cellulomonas fimi).
The target of series [2] is CjAA10BΔCBM, cellulose active LPMO CjAA10B from Cellvibrio japonicus lacking its CBM (Cellvibrio japonicus).
Substrate in series [3]: O=C1O[C@H]([C@@H](O)CO)C(O)=C1O
The experiment in a line: Amplex Red / horseradish peroxidase coupled H2O2 production, initial rates. The series is classed as biochemical, Cellvibrio japonicus. The following applies: reductant varied, no polysaccharide, O2 from air, 50 mM sodium phosphate pH 6.0, room temperature, 2 µM LPMO. An excerpt:
Amplex Red / horseradish peroxidase coupled H2O2 production, initial rates on CjAA10BΔCBM | concentration of CjX183, or ascorbate, was varied around calculated KM values

B1: CjX183, c-type cytochrome X183 domain of Cbp2D from Cellvibrio japonicus (domain or fragment)
chain: GYLVGDATRGANLWNTQTCVACHGVDGERNASGTPALTPLNPNRDLYRHSRDTQDRALRDFISMWMPQGNEGSCTGQCAADIEAFIRTW
modifications: heme c covalently linked via thioether linkages to Cys19 and Cys22 (numbering of the structure); disulfide bond between cysteines 74 and 78
In series [1], B1 returned a rate of oxidation of reduced CjX183 (10 µM, decay of A552, single exponential) with 0 to 50 µM CfAA10; rate rose linearly of 1.13 min⁻¹. In series [2], this molecule displayed a rate of oxidation of reduced CjX183 (10 µM, decay of A552, single exponential) with 0 to 50 µM CjAA10BΔCBM; rate rose linearly of 0.56 min⁻¹.

B2: CjAA10BΔCBM (Cellvibrio japonicus Ueda107) (protein)
chain: HGFVDSPGARNYFCGAVTKPDHVMNGVARYPECAGAFANDFNGGYSYMSVLTHHQGRKVLGPVARNVCGFDSETWNGGKTPWDNAINWPVNNINSGTLTFSWDISNGPHFDDTSDFRYWITKPGFVYQVGRELTWADFEDQPFCDLAYNDDNPGAYPNVRADKPNTHFHTTCTVPARTGRHVIYAEWGREPPTYERFHGCIDVQIGGGSNSSVPVSSSSSSRSSSSSSLAPSSSSRSSSSSSSVSSSRSSSSSVVSSSSSSRPASSSSSSTGGS
notes: AA10 catalytic part, C-terminal CBM deleted, from pET22-CjAA10B
Turning to B2, the Km in series [3] turned out to be 5.8 ± 0.3 µM.

Usually Km stands for the substrate concentration at which the rate is half of its maximum.

For the origin of these results see publication PMC8981238, “C-type cytochrome-initiated reduction of bacterial lytic polysaccharide monooxygenases” (Biochemical Journal, 2021).
